Patent US20020177126A1
Changes are numbered by the printed parent chain.

B1: A17d4 (Fab) (Fab, V domains shown)
VH: QVTLRESGPALVKPTQTLTLTCTFSGFSLSTAGMSVGWIRQPPGKALEWLADIWWDGKKSYNPSLKDRLTISKDTSKNQVVLKVTNMDPADTATYYCARDMIFNFYFDVWGQGTTVTVSS
VL: DIQMTQSPSTLSASVGDRVTITCLPSSRVGYMHWYQQKPGKAPKLLIYDTMYQASGVPSRFSGSGSGTEFTLTISSLQPDDFATYYCFQFSGYPFTFGGGTKLEIK
B2: A8c7 (Fab) (Fab, V domains shown)
VH: B1 VH with G57D, F105W
VL: B1 VL with L24S, P25A, M51R, A54S, F90G
B3: A4B4 (Fab) (Fab, V domains shown)
VH: B1 VH with G57D, S60H
VL: B1 VL with L24S, P25A, M51F, Y52F, Q53L, A54D, F90G
B4: A1h5 (Fab) (Fab, V domains shown)
VH: B1 VH with A32P, S60H, F105W
VL: B1 VL with L24S, P25L, R28S, M51F, Y52F, Q53H, A54R, F90G

substrate: F protein of wild type RSV A/Long (respiratory syncytial virus, strain A/Long) (UniProt P12568); assay: cell-based or functional assay
Sequence (P12568 26-574): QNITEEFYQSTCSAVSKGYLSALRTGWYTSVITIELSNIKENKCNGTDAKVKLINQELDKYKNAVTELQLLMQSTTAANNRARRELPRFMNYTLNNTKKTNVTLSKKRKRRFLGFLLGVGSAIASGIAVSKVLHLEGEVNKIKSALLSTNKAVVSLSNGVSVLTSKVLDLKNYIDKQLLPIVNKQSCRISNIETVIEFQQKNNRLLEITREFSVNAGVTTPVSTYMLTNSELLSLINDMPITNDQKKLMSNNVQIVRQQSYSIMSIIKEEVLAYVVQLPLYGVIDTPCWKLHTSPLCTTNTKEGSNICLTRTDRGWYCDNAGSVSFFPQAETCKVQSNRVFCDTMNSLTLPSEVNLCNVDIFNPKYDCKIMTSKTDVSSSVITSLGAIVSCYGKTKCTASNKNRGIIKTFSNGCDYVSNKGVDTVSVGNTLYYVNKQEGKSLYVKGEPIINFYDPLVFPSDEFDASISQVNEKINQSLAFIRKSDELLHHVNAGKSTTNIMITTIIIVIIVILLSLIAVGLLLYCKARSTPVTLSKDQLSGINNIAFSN

Row | Binder | Fold Difference (Control IC50) [fold] | Fold Difference (Curve IC50) [fold] | Mean IC50 (Control), RSV microneutralization [µg/mL] | Mean IC50 (Curve), RSV microneutralization [µg/mL]
1 | B1 | 31 | 25 | 0.0171 | 0.0179
2 | B2 | 34 | 3 | 0.157 | 0.177
3 | B3 | 13 | 11 | 0.0411 | 0.0414
4 | B4 | 3 | 2 | 0.176 | 0.194
